Drawing on patent US11702475B2, “Cysteine engineered fibronectin type III domain binding molecules” (Janssen Biotech, Inc., priority 2013, dated 2023), this text covers IC50 and Kd for one molecule.

Assay [1] concerns the target T1, EGFR on A431 cells (EGF binding) (Homo sapiens, UniProt P00533).
T1 construct: A431 cells (American Type Culture Collection, cat. #CRL-1555) over-express EGFR; host or cells: A431
Nature of the assay: A431 cell EGF competition assay. The following applies: biotinylated EGF 30 ng/mL. The procedure:
To better characterize the mechanism of EGFR binding, the ability of various identified FN3 domain clones to bind EGFR in an EGF-competitive manner was measured using A431 cells and run in parallel with the A431 binding assay screen. A431 cells were plated at 5,000/well in opaque black 96-well plates and allowed to attach overnight at 37° C., in a humidified 5% CO2 atmosphere. Cells were incubated with 50 μL/well of 1:1,000 diluted bacterial lysate for 1 hour at room temperature in triplicate plates. Biotinylated EGF (Invitrogen, cat. #E-3477) was added to each well to give a final concentration of 30 ng/mL and incubated for 10 minutes at room temperature. Cells were washed 3 times with 150 μL/well of FACS stain buffer. […] Cells were washed 3 times with 150 μL/well of FACS stain buffer, after which wells were filled with 100 μL of FACS stain buffer and read for fluorescence at 600 nm using an Acumen eX3 reader.
A431 cells were plated at 5,000/well in opaque black 96-well plates and allowed to attach overnight at 37° C., in a humidified 5% CO2 atmosphere. […] Cells were washed 3 times with 150 μL/well of FACS stain buffer, after which wells were filled with 100 μL of FACS stain buffer and read for fluorescence at 600 nm using an Acumen eX3 reader. […]

Assay [2] has as its target T2, EGFR-Fc (recombinant human extracellular domain of EGFR fused to an IgG1 Fc) (Homo sapiens, UniProt P00533).
T2 construct: purchased R&D Systems
Nature of the assay: Affinity of FN3 domains to EGFR-Fc by surface plasmon resonance (ProteOn), incl. off-rate screen. The assay is classed as binding. The following applies: SPR ProteOn, 1:1 Langmuir fit. On the procedure:
Select EGFR-binding FN3 domains were screened to identify those with slow off-rates (koff) in binding to EGFR-Fc on a ProteOn XPR-36 instrument (Bio-Rad) to facilitate selection of high affinity binders. Goat anti-human Fc IgG (R&D systems), at a concentration of 5 μg/mL, was directly immobilized via amine coupling (at pH 5.0) on all 6 ligand channels in horizontal orientation on the chip with a flow rate of 30 μL/min in PBS containing 0.005% Tween-20. The immobilization densities averaged about 1500 Response Units (RU) with less than 5% variation among different channels. EGFR-Fc was captured on the anti-human Fc IgG surface to a density around 600 RU in vertical ligand orientation. All tested FN3 domains were normalized to a concentration of 1 μM and tested for their binding in horizontal orientation. […] The dissociation phase was monitored for 10 minutes at a flow rate of 100 μL/min. […]
Binding affinity of selected EGFR-binding FN3 domains to recombinant EGFR extracellular domain was further characterized by surface Plasmon resonance methods using a Proteon Instrument (BioRad). […] The dissociation phase for all concentrations of each EGFR-binding FN3 domain was monitored at a flow rate of 100 μL/min for 30 minutes (for those with koff˜10^−2 s^−1 from off-rate screening), or 1 hour (for those with koff˜10^−3 s^−1 or slower). […]
In general terms: In SPR one partner is held on a chip, and binding of the other changes the refractive index at the surface.

B1: P54AR4-47: EGFR-binding FN3 domain, SEQ ID NO: 20 (protein)
chain: LPAPKNLVVSEVTEDSLRLSWGYNGDHFDSFLIQYQESEKVGEAINLTVPGSERSYDLTGLKPGTEYTVSIYGVHNVYKDTNMRGLPLSAEFTT
modifications: EGFR binding FN3 domain
A word on the IC50: it is the concentration needed to halve the response being measured. Usually Kd stands for the equilibrium constant for the complex coming apart. Take B1: the IC50 in assay [1] worked out at 7.1 nM. The Kd in assay [2] turned out to be 2.51 nM.
